Usually Kd stands for a measure of binding affinity in units of concentration. High values mean weaker binding, low ones tighter binding.

The values that follow come from publication PMC5389614.

Positions count from the first letter of the chain named. Read-outs that look alike come from different tables or passages of the source.

Data set [1] concerns the target T1, AgeI D223A (UniProt Q9KHV6 1-278, D223A).
T1 sequence: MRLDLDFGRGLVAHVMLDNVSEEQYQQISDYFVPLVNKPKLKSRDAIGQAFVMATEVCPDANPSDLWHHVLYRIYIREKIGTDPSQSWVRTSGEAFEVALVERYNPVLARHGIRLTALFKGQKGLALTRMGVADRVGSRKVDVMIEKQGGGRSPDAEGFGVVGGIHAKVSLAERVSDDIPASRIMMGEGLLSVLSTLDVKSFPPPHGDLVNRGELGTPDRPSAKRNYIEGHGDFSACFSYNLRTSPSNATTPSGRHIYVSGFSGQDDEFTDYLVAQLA
Kind of data set: EMSA. (In general: Mobility shift assays separate free from complexed probe on a gel.)

For data set [2], the target named is T2, AgeI D177A (UniProt Q9KHV6 1-278, D177A).
T2 sequence: T1 sequence with D177A, A223D
Kind of data set: EMSA.

Data set [3] addresses T3, AgeI D178A (UniProt Q9KHV6 1-278, D178A).
T3 sequence: T1 sequence with D178A, A223D
Put plainly: EMSA.

The target of data set [4] is T4, AgeI Q86A (UniProt Q9KHV6 1-278, Q86A).
T4 sequence: T1 sequence with Q86A, A223D
Kind of data set: EMSA.

In data set [5] the target is T5, AgeI wt (UniProt Q9KHV6 1-278).
T5 sequence: T1 sequence with A223D
Put plainly: EMSA.

Data set [6] has as its target T6, AgeI D142A (UniProt Q9KHV6 1-278, D142A).
T6 sequence: T1 sequence with D142A, A223D
Put plainly: EMSA.

In data set [7] the target is T7, AgeI S138A (UniProt Q9KHV6 1-278, S138A).
T7 sequence: T1 sequence with S138A, A223D
Put plainly: EMSA.

The target in data set [8] is T5, AgeI wt. Put plainly: X-ray crystallography.
The target of data set [9] is T5, AgeI wt. Put plainly: X-ray crystallography. The source holds these as a separate data set.

B1: NC (non-canonical) (dsDNA)
DNA 1: AGACCCACGCTCACCGGATCCAGATTTATC
DNA 2: GATAAATCTGGATCCGGTGAGCGTGGGTCT
As for B1, the figures for the Kd in data set [1], in data set [2] and in [3] were about 5 nM, 14.7 ± 3.1 nM and about 5 nM, respectively.

B2: SP (specific) (dsDNA)
DNA 1: B1 DNA 1 with A18T
DNA 2: B1 DNA 2 with T13A
With B2, the Kd in data set [1] was 1.2 ± 0.4 nM; in data set [4], 4.6 ± 1.4 nM; in [2] it was 19.5 ± 5.6 nM; in data set [5], 0.9 ± 0.2 nM; in data set [6] it was 2.4 ± 0.8 nM; in data set [7] it was 1.2 ± 0.2 nM. In addition, the Kd in data set [3] was determined as 1 ± 0.3 nM.

B3: SP11 (dsDNA)
DNA 1: TCGACCGGTCG
DNA 2: TCGACCGGTCG
Consider B3, for which the binding result in data set [8] is “binds”.

B4: SP13 (dsDNA)
DNA 1: TTCGACCGGTCGA
DNA 2: TTCGACCGGTCGA
Consider B4, for which, in [9], the binding result is recorded as “binds”.
